The text below walks through data of article PMC11252808 (Proceedings of the National Academy of Sciences of the …, 2024).

What is called Kd is a measure of binding affinity in units of concentration.

Where no end group is shown, it is not given here. [ ]: non-standard residue; d: D form. pS = N[C@@H](COP(=O)(O)O)C(=O)O

This test concerns the target T1, recombinant SUFU (UniProt Q9UMX1 1-484).
T1 sequence (looked up): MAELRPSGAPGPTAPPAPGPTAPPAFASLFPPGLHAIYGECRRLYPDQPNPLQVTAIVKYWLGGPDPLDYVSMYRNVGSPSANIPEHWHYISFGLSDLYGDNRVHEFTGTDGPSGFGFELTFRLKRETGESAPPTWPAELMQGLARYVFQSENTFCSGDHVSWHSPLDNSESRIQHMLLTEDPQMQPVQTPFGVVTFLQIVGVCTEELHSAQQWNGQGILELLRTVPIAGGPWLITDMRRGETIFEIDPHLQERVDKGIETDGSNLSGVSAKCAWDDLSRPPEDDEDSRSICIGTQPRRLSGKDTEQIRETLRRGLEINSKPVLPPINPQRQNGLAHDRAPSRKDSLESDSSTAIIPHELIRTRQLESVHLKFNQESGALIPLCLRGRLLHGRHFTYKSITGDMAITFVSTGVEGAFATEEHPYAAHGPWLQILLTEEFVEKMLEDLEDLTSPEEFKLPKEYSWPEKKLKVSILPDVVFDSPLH
Description: SPR. (In general: SPR reads the build-up and loss of mass on a sensor chip optically.)

For MIRT[pS]PNSLVTILNNSRSSSSASGSYGHLSASAISPA (peptide, UniProt P10071 309-345, looked up) [phosphorylated GLI3 peptide (phospho-GLI3^S313_(309–345))], the Kd worked out at 5.08 µM.
